Test results reported in US20150306181A1 (BOARD OF REGENTS OF THE UNIVERSITY OF NEBRASKA, published 2015).

B1: Mouse leptin (ligand, UniProt P41160 22-167, looked up)
chain: VPIQKVQDDTKTLIKTIVTRINDISHTQSVSAKQRVTGLDFIPGLHPILSLSKMDQTLAVYQQVLTSLPSQNVLQIANDLENLRDLLHLLAFSKSCSLPQTSGLQKPESLDGVLEASLYSTEVVALSRLQGSLQDILQQLDVSPEC
notes: Also tested as a non-covalent 1:1 mixture with free Pluronic P85 ('Leptin + P85'); Those rows use this molecule and name the mixture under assay; The preparation held monomer and dimer on SDS-PAGE; also called native leptin; mu-leptin
B2: Lep-(ss)-P85(1) reduced (ligand, mouse, UniProt P41160 22-167, looked up)
chain: VPIQKVQDDTKTLIKTIVTRINDISHTQSVSAKQRVTGLDFIPGLHPILSLSKMDQTLAVYQQVLTSLPSQNVLQIANDLENLRDLLHLLAFSKSCSLPQTSGLQKPESLDGVLEASLYSTEVVALSRLQGSLQDILQQLDVSPEC
modifications: Pluronic P85 chains on lysine amino groups through the DSP linker, partly cleaved by 6 mM L-glutathione; a linker remainder is left on cleaved sites
notes: Lep-(ss)-P85(1) dialysed against 6 mM L-glutathione in PBS with 20% ethanol; Some but not all P85 chains were cleaved; also called reduced form of Lep-(ss)-P85(1)
B3: Lep-(ss)-P85(2.1) (ligand, mouse, UniProt P41160 22-167, looked up)
chain: VPIQKVQDDTKTLIKTIVTRINDISHTQSVSAKQRVTGLDFIPGLHPILSLSKMDQTLAVYQQVLTSLPSQNVLQIANDLENLRDLLHLLAFSKSCSLPQTSGLQKPESLDGVLEASLYSTEVVALSRLQGSLQDILQQLDVSPEC
modifications: Pluronic P85 chains on lysine amino groups through the DSP (disulfide) linker; lower degree of modification; positions not determined
notes: Mixture that includes unmodified leptin
B4: Lep-(ss)-P85(2.3), 33 min (ligand, mouse, UniProt P41160 22-167, looked up)
chain: VPIQKVQDDTKTLIKTIVTRINDISHTQSVSAKQRVTGLDFIPGLHPILSLSKMDQTLAVYQQVLTSLPSQNVLQIANDLENLRDLLHLLAFSKSCSLPQTSGLQKPESLDGVLEASLYSTEVVALSRLQGSLQDILQQLDVSPEC
modifications: one Pluronic P85 chain on a lysine amino group through the DSP (disulfide) linker; position not determined
notes: HIC fraction collected at 33 min, said to contain leptin modified with one P85 chain; also called Lep-(ss)-P85(2.3) purified by HIC (33 minutes); HIC-purified Lep-(ss)-P85(2.3)
B5: Lep-(ss)-P85(2.1) reduced (ligand, mouse, UniProt P41160 22-167, looked up)
chain: VPIQKVQDDTKTLIKTIVTRINDISHTQSVSAKQRVTGLDFIPGLHPILSLSKMDQTLAVYQQVLTSLPSQNVLQIANDLENLRDLLHLLAFSKSCSLPQTSGLQKPESLDGVLEASLYSTEVVALSRLQGSLQDILQQLDVSPEC
modifications: Pluronic P85 chains on lysine amino groups through the DSP linker, partly cleaved by 6 mM L-glutathione
notes: Lep-(ss)-P85(2.1) dialysed against 6 mM L-glutathione in PBS with 20% ethanol; also called reduced form of Lep-(ss)-P85(2.1)
B6: Lep-(nc)-P85(2) (ligand, mouse, UniProt P41160 22-167, looked up)
chain: VPIQKVQDDTKTLIKTIVTRINDISHTQSVSAKQRVTGLDFIPGLHPILSLSKMDQTLAVYQQVLTSLPSQNVLQIANDLENLRDLLHLLAFSKSCSLPQTSGLQKPESLDGVLEASLYSTEVVALSRLQGSLQDILQQLDVSPEC
modifications: one Pluronic P85 chain on the N-terminal alpha amino group by reductive amination with mono-aldehyde-P85
notes: the rest is unmodified leptin; also called N-terminal modified Lep-(nc)-P85(2)
B7: Leptin-POx conjugate (ligand, UniProt P41160 22-167, looked up)
chain: VPIQKVQDDTKTLIKTIVTRINDISHTQSVSAKQRVTGLDFIPGLHPILSLSKMDQTLAVYQQVLTSLPSQNVLQIANDLENLRDLLHLLAFSKSCSLPQTSGLQKPESLDGVLEASLYSTEVVALSRLQGSLQDILQQLDVSPEC
modifications: P(MeOx50-b-BuOx20) poly(2-oxazoline) chains on amino groups through the DSP linker; modification degree 6.0 per leptin monomer by TNBS assay
notes: SEC-purified mixture of forms with different numbers of POx chains, with some unmodified monomer and dimer; also called leptin-P(MeOx-b-BuOx); leptipox
B8: Lep-(ss)-P85(1) (ligand, mouse, UniProt P41160 22-167, looked up)
chain: VPIQKVQDDTKTLIKTIVTRINDISHTQSVSAKQRVTGLDFIPGLHPILSLSKMDQTLAVYQQVLTSLPSQNVLQIANDLENLRDLLHLLAFSKSCSLPQTSGLQKPESLDGVLEASLYSTEVVALSRLQGSLQDILQQLDVSPEC
modifications: Pluronic P85 chains on lysine amino groups through the DSP (disulfide) linker; highly modified; positions not determined
notes: Mixture of unmodified leptin and leptin with 1 to several P85 chains

How the values were obtained:
[1] = biological target: T1, mouse leptin receptor-Fc chimera (mouse; human, UniProt P48356 22-839); assay: SPR, ObR-Fc captured on protein G CM5 chip, 1:1 model (Example 3)
T1 construct: extracellular domain; Bought from R&D Systems; Captured on a protein G sensor chip through its Fc; also called ObR-Fc; chimera leptin receptor; not shown: human Fc fragment, printed as 'human protein G Fc fragment'
T1 sequence (looked up): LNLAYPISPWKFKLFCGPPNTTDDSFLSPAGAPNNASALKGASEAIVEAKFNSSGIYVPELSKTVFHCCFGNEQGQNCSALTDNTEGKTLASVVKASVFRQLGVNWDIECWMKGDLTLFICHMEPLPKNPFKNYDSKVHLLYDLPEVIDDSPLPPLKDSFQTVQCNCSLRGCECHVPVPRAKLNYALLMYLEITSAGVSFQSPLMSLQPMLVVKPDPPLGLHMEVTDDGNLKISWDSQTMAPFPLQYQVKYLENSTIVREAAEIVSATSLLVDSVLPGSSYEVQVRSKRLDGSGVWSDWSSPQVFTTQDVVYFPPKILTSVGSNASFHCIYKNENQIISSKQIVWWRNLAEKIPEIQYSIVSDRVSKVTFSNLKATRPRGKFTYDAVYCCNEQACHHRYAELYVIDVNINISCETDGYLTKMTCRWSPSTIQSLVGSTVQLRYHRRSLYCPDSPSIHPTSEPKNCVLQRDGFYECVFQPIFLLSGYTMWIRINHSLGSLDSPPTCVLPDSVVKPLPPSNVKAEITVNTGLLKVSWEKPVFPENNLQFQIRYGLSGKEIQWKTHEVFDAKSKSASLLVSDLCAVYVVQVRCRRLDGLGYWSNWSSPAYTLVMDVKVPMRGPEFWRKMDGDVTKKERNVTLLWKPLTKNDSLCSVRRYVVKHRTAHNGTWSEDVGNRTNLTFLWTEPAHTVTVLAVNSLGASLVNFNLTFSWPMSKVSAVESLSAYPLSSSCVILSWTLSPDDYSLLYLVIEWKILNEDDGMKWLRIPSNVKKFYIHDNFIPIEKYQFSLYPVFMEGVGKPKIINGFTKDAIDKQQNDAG
Protocol: […] Binding affinity of leptin or leptin-POx with leptin receptor was determined by surface plasma resonance (SPR). Protein G was immobilized on CM5 sensor chip using following procedure: 1) inject 115 μL NHS/EDC mixed solution (1:1, v/v) to activate dextran surface; 2) inject 60 μL protein G (200 μg/mL in 10 mM sodium acetate buffer, pH 4.0) to bind with the activated sensor surface; 3) inject 75 μL of 1 M ethanolamine hydrochloride, pH 8.5 to deactivate NHS-ester and remove non-specifically bound protein. […] The sensorgram in channel A was corrected by non-specific surface binding (sensorgram in channel B) and baseline draft (sensorgram of HBS-EP buffer injection in channel A) and then fitted with a 1:1 binding model as provided by BIA evaluation software. The rate constant kₐ and kd, and equilibrium association constant (KA) and dissociation constant (KD) are determined.

[2] = biological target: T1, mouse leptin receptor-Fc chimera; assay: SPR, ObR-Fc captured on protein G chip, 1:1 model; leptin in 1:1 mixture with free Pluronic P85
Protocol: (§1) The binding affinity of leptin and its analogs was measured by surface plasma resonance (SPR) in Biacore® 3000 instrument (GE Healthcare, Piscataway, N.J.), using a method reported for leptin (Mistrik et al. (2004) Anal. Biochem., 327:271-7). Carboxymethyl dextran chip (CMS), N-hydroxysuccinimide (NHS), 1-ethyl-3-(3-dimethylaminopropyl) carbodiimide (EDC), ethanolamine-HCl, HBS-EP buffer (10 mM HEPES, 150 mM NaCl, 3 mM EDTA, 0.005% surfactant P20, pH 7.4) and protein G were all purchased from GE Healthcare. […] CMS surface response was recorded by first, immobilization of ObR-Fc (0.5 μg/mL, 15 μL in HBS-EP, 5 μL/min flow rate) in channel A following 1800 s washing (to capture 100-300 RU of ObR-Fc); second, capture of leptin or leptin-Pluronic® conjugates (0-300 nM, 100 μL in HBS-EP, flow rate 20 μL/min) and dissociation (900 s) in channel A (ObR-Fc surface) and B (protein G surface); third, regeneration of a fully active protein G surface by 5 μL glycine (10 mM, pH 2.0). […]
(§2) TABLE 3 Kinetic constants for leptin and leptin-P85 conjugates and leptin receptor interaction. The association and dissociation rate constants kₐ and kd were determined as global fitting parameters for a 1:1 binding model. […] The equilibrium dissociation constant KD was determined as kd/kₐ. […]

[3] = biological target: T1, mouse leptin receptor-Fc chimera; assay: SPR (Biacore 3000), ObR-Fc captured on protein G chip, 1:1 model
Protocol: The binding affinity of leptin and its analogs was measured by surface plasma resonance (SPR) in Biacore® 3000 instrument (GE Healthcare, Piscataway, N.J.), using a method reported for leptin (Mistrik et al. (2004) Anal. Biochem., 327:271-7). Carboxymethyl dextran chip (CMS), N-hydroxysuccinimide (NHS), 1-ethyl-3-(3-dimethylaminopropyl) carbodiimide (EDC), ethanolamine-HCl, HBS-EP buffer (10 mM HEPES, 150 mM NaCl, 3 mM EDTA, 0.005% surfactant P20, pH 7.4) and protein G were all purchased from GE Healthcare. To prepare the sensor chip, protein G was immobilized on CMS (Channel A and B) by consequent injection of 1) 115 μL NHS/EDC (1:1, v/v) (to activate dextran surface); 2) 60 μL protein G (200 μg/mL, 10 mM sodium acetate buffer, pH 4.0) (to bound the surface at 2000-3000 resonance units (RU)), and 3) 75 μl of 1 M ethanolamine hydrochloride, pH 8.5 (to deactivate NHS-ester and remove electrostatically bound protein). CMS surface response was recorded by first, immobilization of ObR-Fc (0.5 μg/mL, 15 μL in HBS-EP, 5 μL/min flow rate) in channel A following 1800 s washing (to capture 100-300 RU of ObR-Fc); second, capture of leptin or leptin-Pluronic® conjugates (0-300 nM, 100 μL in HBS-EP, flow rate 20 μL/min) and dissociation (900 s) in channel A (ObR-Fc surface) and B (protein G surface); third, regeneration of a fully active protein G surface by 5 μL glycine (10 mM, pH 2.0). The data (sensorgrams in channel A) were corrected by non-specific protein G surface binding (sensorgrams in channel B) and baseline draft (sensorgrams of HBS-EP injection in channel A) which might occur due to a slow dissociation of between ObR-Fc and protein G and then fitted to a 1:1 binding model using BIA evaluation software.
TABLE 3 Kinetic constants for leptin and leptin-P85 conjugates and leptin receptor interaction. The association and dissociation rate constants kₐ and kd were determined as global fitting parameters for a 1:1 binding model. The kinetics of the interaction with leptin, the mixture of leptin and P85, Lep-(ss)-P85(1) and its reduced form, Lep-(ss)-P85(2.1) and its reduced form, Lep-(nc)-P85(2) and purified Lep-(ss)-P85(2.3) from HIC, 33 min were analyzed. The equilibrium dissociation constant KD was determined as kd/kₐ. Numbers represent averaged values from three independent measurements on the same ObR-Fc surface.

[4] = biological target: T1, mouse leptin receptor-Fc chimera; assay: SPR, ObR-Fc captured on protein G chip; leptin in 1:1 mixture with free Pluronic P85
Description: Next, the binding of the leptin-Pluronic® conjugates with the chimera leptin receptor (ObR-Fc) was studied. ObR-Fc contains the human […] Fc fragment and the mouse ObR N-terminus that shares the same sequence as the extracellular domains of the putative leptin transporter at the BBB (ObRa) and the leptin receptor (ObRb) expressed in the brain. The Fc fragment of ObR-Fc was used to reversibly bind to protein G that was pre-immobilized onto the sensor chip. The ObR N-terminus of ObR-Fc adsorbed onto the sensor chip was used for sample detection. The SPR association and dissociation profiles were recorded for native leptin, a mixture of leptin and P85, Lep-(ss)-P85(1), Lep-(ss)-P85(2.1), Lep-(ss)-P85(2.3) (fractions purified by HIC and collected at 33 min) and Lep-(nc)-P85(2) (FIG. 8 and Table 3). […] The KD values for the N-terminal modified Lep-(nc)-P85(2), which also had low modification degree, were similar to those observed for Lep-(ss)-P85(2.1) without HIC purification.

[5] = biological target: T1, mouse leptin receptor-Fc chimera; assay: SPR, ObR-Fc captured on protein G chip, 1:1 model; leptin in 1:1 mixture with free Pluronic P85; leptin mixed with free P85
Protocol: as §1, §2

[6] = biological target: T1, mouse leptin receptor-Fc chimera; assay: SPR (Biacore 3000), ObR-Fc captured on protein G chip, 1:1 model, KD = kd/ka
Protocol: as §1, §2

Binder	koff [3] [s⁻¹]	kon [3] [M⁻¹ s⁻¹]	Kd [3] [nM]	further results
B1	0.000208	2.09e+06	–	Ka [1]: 1.1e+09 M⁻¹; Kd [1]: 0.96 nM; koff [1]: 0.00051 s⁻¹; kon [1]: 530000 M⁻¹ s⁻¹; koff [2]: 0.000368 s⁻¹; kon [2]: 1.09e+06 M⁻¹ s⁻¹; fold decrease of binding affinity against native leptin alone [4]: ~3 fold; Kd [5]: 0.337 nM; Kd [6]: 0.1 nM
B2	0.00079	49000	16.4	–
B3	0.000355	113000	3.2	–
B4	0.000292	311000	1.21	–
B5	0.000407	195000	2.09	–
B6	0.000247	77000	3.8	–
B7	–	–	–	Ka [1]: 1.8e+07 M⁻¹; Kd [1]: 56 nM; koff [1]: 0.00073 s⁻¹; kon [1]: 13000 M⁻¹ s⁻¹
B8	0.000642	12000	57.1	–
